Experimental data reported in patent US20230303695A1 (SHANGHAI XBH BIOTECHNOLOGY, published 2023).
Substitutions are numbered along the chain they refer to. Blank lines part the entries; values can stand above or below the binder they belong to.

Assays:
[1] = molecular target: T1, recombinant human IGSF8 extracellular domain tagged by a human Fc region (IGSF8-hFc) (human, UniProt Q969P0 28-579, biotin label in Examples 17, 18 and 28 (site not given)); assay: SPR, Ab captured
T1 construct: also called IGSF8-Fc fusion protein; IGSF8-hFc-biotin; not shown: human Fc region
T1 sequence: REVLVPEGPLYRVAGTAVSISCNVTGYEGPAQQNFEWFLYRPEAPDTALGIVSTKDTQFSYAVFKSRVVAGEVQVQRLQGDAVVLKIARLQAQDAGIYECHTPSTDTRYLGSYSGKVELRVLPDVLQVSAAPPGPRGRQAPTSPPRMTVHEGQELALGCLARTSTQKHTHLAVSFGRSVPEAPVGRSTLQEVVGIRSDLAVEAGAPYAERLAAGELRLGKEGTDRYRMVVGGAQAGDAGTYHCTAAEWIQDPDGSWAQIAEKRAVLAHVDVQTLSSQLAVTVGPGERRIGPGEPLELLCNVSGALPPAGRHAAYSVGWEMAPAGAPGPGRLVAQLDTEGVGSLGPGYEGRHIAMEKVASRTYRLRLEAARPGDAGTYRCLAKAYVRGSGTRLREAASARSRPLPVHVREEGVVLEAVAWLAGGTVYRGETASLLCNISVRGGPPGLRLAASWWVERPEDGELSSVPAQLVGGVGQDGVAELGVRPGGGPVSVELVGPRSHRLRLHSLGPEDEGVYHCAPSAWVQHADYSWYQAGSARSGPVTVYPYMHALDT
Experimental: The binding affinities of the L1 and L2 antibodies to IGSF8 recombinant protein were determined by surface plasmon resonance (SPR). Briefly, anti-human Fab antibody was imobilized on acarboxyl-derivatized SPR chip surface, and the antibodies were captured on the resulting surface at 5 μg/ml for 30 seconds.

[2] = molecular target: T2, human IGSF8 expressed on the cell surface (human, UniProt Q969P0 28-613); assay: FACS on CT26 cells expressing IGSF8
T2 construct: whole, on cells; also called human IGSF8 on CT26 cells; IGSF8 on MC38 cells
T2 sequence (looked up): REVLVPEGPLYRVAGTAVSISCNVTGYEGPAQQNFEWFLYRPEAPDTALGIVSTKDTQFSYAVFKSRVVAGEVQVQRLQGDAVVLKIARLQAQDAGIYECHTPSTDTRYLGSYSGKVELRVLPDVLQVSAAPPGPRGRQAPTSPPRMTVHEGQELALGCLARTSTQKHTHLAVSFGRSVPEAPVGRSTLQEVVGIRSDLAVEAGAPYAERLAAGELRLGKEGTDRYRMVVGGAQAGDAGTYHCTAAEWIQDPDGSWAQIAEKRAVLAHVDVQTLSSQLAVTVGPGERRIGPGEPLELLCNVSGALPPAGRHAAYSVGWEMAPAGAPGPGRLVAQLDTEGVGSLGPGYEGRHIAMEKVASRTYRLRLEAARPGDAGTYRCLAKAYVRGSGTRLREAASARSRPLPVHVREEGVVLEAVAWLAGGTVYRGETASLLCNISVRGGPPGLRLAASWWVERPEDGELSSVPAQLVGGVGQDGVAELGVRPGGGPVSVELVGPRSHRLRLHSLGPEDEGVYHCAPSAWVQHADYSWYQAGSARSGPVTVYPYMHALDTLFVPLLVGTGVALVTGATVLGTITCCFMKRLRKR
Experimental: (§1) To test cross reactivity of the L1, and L2 antibodies, CT26 cells with forced human, cynomolgus monkey, or mouse IGSF8 expression were generated by lentiviral delivery. For antibody binding assays based on cell-expressed antigens, 100,000 cells overexpressing the antigen were washed with PBS buffer containing 2% FBS, and then incubated with 100 μL of antibodies or IgG of different concentrations for 30 minutes on ice. Cells were then washed twice with wash buffer, and incubated with 100 μL of 1:100 anti-human Fc-PE antibody for 15 minutes on ice. Cells were washed twice with wash buffer and analyzed on a FACS analyzer (CytoFlex, Beckman). The MFI was plotted vs. antibody concentration. The EC50 cell binding potenct was calculated using nonlinear regression curve fit.

[3] = molecular target: T3, cynomolgus monkey IGSF8 expressed on CT26 cells (cynomolgus monkey, UniProt Q969P0 28-613 (human entry)); assay: FACS on CT26 cells expressing IGSF8
T3 sequence: T2 sequence (looked up) with A14T, V63I, V125A, M147L, T148M, K167Q, S187A, F554L
Experimental: as §1

[4] = molecular target: T4, mouse IGSF8 expressed on CT26 cells (mouse, UniProt Q8R366 26-611); assay: FACS on CT26 cells expressing IGSF8
T4 construct: whole, on cells
T4 sequence (looked up): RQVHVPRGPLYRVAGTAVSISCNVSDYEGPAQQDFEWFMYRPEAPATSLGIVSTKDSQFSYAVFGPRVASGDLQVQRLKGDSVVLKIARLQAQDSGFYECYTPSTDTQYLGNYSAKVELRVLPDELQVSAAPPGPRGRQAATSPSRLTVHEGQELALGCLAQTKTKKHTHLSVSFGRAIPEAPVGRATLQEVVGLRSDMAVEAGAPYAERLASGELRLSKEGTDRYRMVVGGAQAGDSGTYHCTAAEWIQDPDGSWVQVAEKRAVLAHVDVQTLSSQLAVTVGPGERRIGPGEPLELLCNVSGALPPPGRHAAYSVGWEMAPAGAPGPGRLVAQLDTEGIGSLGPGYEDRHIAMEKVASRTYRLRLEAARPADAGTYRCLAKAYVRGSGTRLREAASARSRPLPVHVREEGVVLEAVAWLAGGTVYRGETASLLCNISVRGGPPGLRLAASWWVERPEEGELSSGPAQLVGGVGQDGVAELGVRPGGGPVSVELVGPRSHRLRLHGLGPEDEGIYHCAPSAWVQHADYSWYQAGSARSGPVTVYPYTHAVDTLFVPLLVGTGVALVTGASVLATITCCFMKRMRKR
Experimental: as §1

[5] = molecular target: T1, recombinant human IGSF8 extracellular …; assay: FACS blocking assay: antibody titrated against biotinylated IGSF8-hFc (1 ug/mL) binding to KIR3DL2 on CT26 cells, Streptavidin-PE
Experimental: CT26 cells with forced ectopic/exogenous human KIR3DL2 expression were incubated with biotinylated IGSF8-hFc recombinant protein (1 μg/mL) in the presence of the antibodies L1-20, L2-10, and a isotype control antibody. The binding of IGSF8-hFc-biotin to the Ct26 cells was determined using Streptavidin-PE by flow cytometry analysis (FIG. 39).

[6] = molecular target: T1, recombinant human IGSF8 extracellular …; assay: FACS, IGSF8-hFc on CT26 cells, MFI normalized to Thy1.1
Experimental: KLRC1 also contains a ITIM motif in its intracellular domain, and was known to be a inhibitory receptor of NK or CD8⁺ T cells as part of a heterodimer with KLRD1 on the cell surface. […] Specifically, 100,000 CT26 cells overexpressing the antigens (KIRs or KLRs) were washed with PBS buffer containing 2% FBS, and incubated with 100 μL IGSF8 recombinant proteins or antibodies (5 μg/mL) for 30 minutes on ice. Cells were then washed twice with wash buffer, and incubated with 100 μL of 1:100 anti-human Fc-PE antibody for 15 minutes on ice. Cells were washed twice with wash buffer and analyzed on a FACS analyzer (CytoFlex, Beckman). In these experiments, the mean fluorescence intensity (MFI) of IGSF8 binding to different CT26 cells were normalized by the expression of different KLRs on CT26 cells using an anti-thy1.1 mAb via flow cytometry.

[7] = molecular target: T4, mouse IGSF8 expressed on CT26 cells; assay: FACS on CT26 cells expressing mouse IGSF8, anti-human Fc-PE
Experimental: as §1

B1: L1-20 (antibody, IgG1, V domains shown)
VH: QVQLVESGGGVVQPGRSLRLSCAASGFTFSTYGMHWVRQAPGKGLEWVAVIWDDGSYKYYGDSVKGRFTISRDNSKNTLYLQMNSLRAEDTAVYYCARDGSGWGYAFDIWGQGTLVTVSS
VL: DIQLTQSPSSLSASVGDRVTITCQASQDIEWWLNWYQQKPGKAPKLLIYGSPNLETGVPSRFSGSGSGTDFTFTISSLQPEDIATYYCQQYDSFPYTFGQGTKVEIK
notes: also called L1-20-IgG1
Kd [1]: 0.0214 nM | koff [1]: 7.02e-06 s⁻¹ | kon [1]: 329000 M⁻¹ s⁻¹ | EC50 [2]: 0.0537 µg/mL | EC50 [3]: 0.0268 µg/mL | EC50 [4]: 0.0275 µg/mL | IC50 (read off the curve) [5]: ~0.3 µg/mL

B2: L1-01 (antibody, V domains shown)
VH: B1 VH with L115M
VL: DIQLTQSPSSLSASVGDRVTITCQASQDISEYLNWYQHKPGKAPNPLVFDAANLETGVPPRFSATGSGTDFSLTITSLQPEDFATYYCQQYDSFPYTFGQGTRLDIK
notes: Expressed in CHO cells; also called L1 antibody; L1-01-IgG1
EC50 [2]: 0.206 µg/mL | EC50 [3]: 0.224 µg/mL | EC50 [4]: 0.538 µg/mL

B6: L2-01 (antibody, V domains shown)
VH: EVQLVESGGGLEQPGGSLRLSCAGSGFTFRDYAMTWVRQAPGKGLEWVSSISGSGGNTYYADSVKGRFTISRDNSKNTLYLQMNSLRAEDTAIYYCARGEYSSGWPSWFDPWGQGTLVTVSS
VL: EIVLTQSPSSLSASVGDRVTISCRASRTVGTFLNWYQQRPGKPPQALILGVSILEGGVSSRFSGAGSGTEFSLTISSLQPEDIGTYYCQQSHDVPRTFGQGTKVDLR
notes: Expressed in CHO cells; also called L2 antibody; L2-01-IgG1
EC50 [2]: 0.473 µg/mL | EC50 [3]: 0.212 µg/mL | binding result [7]: no binding (tested: 40 ug/ml)

Results, then the binder that gave them:

binding result [6]: no binding
B3: KLRC1 alone on CT26 cells (receptor)
chain: not shown
notes: whole, on cells; also called KLRC1 monomer

binding result [6]: no binding
B4: KLRD1 alone on CT26 cells (receptor, UniProt Q13241 1-179, looked up)
chain: MAVFKTTLWRLISGTLGIICLSLMSTLGILLKNSFTKLSIEPAFTPGPNIELQKDSDCCSCQEKWVGYRCNCYFISSEQKTWNESRHLCASQKSSLLQLQNTDELDFMSSSQQFYWIGLSYSEEHTAWLWENGSALSQYLFPSFETFNTKNCIAYNPNGNALDESCEDKNRYICKQQLI
notes: whole, on cells; also called KLRD1 monomer

Kd [1]: 0.256 nM | koff [1]: 3.68e-05 s⁻¹ | kon [1]: 144000 M⁻¹ s⁻¹ | EC50 [2]: 0.145 µg/mL | EC50 [3]: 0.041 µg/mL | binding result [7]: no binding (tested: 40 ug/ml) | IC50 (read off the curve) [5]: ~0.4 µg/mL
B5: L2-10 (antibody, V domains shown)
VH: B6 VH with G24A, N57S
VL: DIQMTQSPSSLSASVGDRVTITCRASRTVGTFLNWYQQKPGKAPKALILHTSILEGGVPSRFSGSGSGTDFTLTISSLQPEDIATYYCQQSHDVPRTFGQGTKVEIK
notes: also called L2-10-IgG1
